Results: patent publication US7868228

B1: Moritella marina phosphopantetheinyl transferase, long form (Mm-ppt long) (protein)
chain: LVQLKTYDETRLRSDGVNYLGGNLSYYQACNGKRIILVSILIMYSGVKDKLTLTTNEIHLWSVTPQTIQQPELLQAYSQLLSPAETIKQQRFRFEKDRHNALITRAFVRDLLSHYADVLPADWQFVKGEKDKPEIANPPLPLRFNISHTDNLIICAVMLNDDIGCDVENTLRSSNVLSIAKHSFSDSEFNDLLTQPTAQQTSRFFDYWTLKESYIKAWGLGLSIPLKDFSFTLPEGFQQQYQQEDQQENQHCIDTIKLSFAPHRIDNPNIWRHWLFYPNNTHRVALAVRARSNNQQTEYKMRFFNSTPLINITETLIFKPETNFKPDAK
B2: Moritella marina phosphopantetheinyl transferase, short form (Mm-ppt short) (protein)
chain: MYSGVKDKLTLTTNEIHLWSVTPQTIQQPELLQAYSQLLSPAETIKQQRFRFEKDRHNALITRAFVRDLLSHYADVLPADWQFVKGEKDKPEIANPPLPLRFNISHTDNLIICAVMLNDDIGCDVENTLRSSNVLSIAKHSFSDSEFNDLLTQPTAQQTSRFFDYWTLKESYIKAWGLGLSIPLKDFSFTLPEGFQQQYQQEDQQENQHCIDTIKLSFAPHRIDNPNIWRHWLFYPNNTHRVALAVRARSNNQQTEYKMRFFNSTPLINITETLIFKPETNFKPDAK
B3: Shewanella oneidensis MR-1 phosphopantetheinyl transferase (So-ppt) (protein)
chain: MKIELFFIPLAEMDAEMVSRCMALLSEDERAKVARYLAPKAQMNGLLVRAALRCVLSQGLQSPNESSLNAFSSNTGSLPIAPQDWCFEYGAKGKPSLCHEQFLKTGIEFNLSHSGDWLLIALAQGRAHTKFIDQSAKTRLGLGVDIERARASTNIYPILNHYFSARETEALLALPGETAHRQRFFDLWALKESYIKATGLGLAQSLKSFAFELMPDALVEVHPNQVALRHEWVELKRREPFALPSQLKLYCEIKPTAAFLPDSAHPPPENLHVQSYFGRLDEEYRFGLSLIHPNALSNVQISMTLASIKSLLAASLAD
B4: Colwellia psychrerythraea phosphopantetheinyl transferase (Cp-ppt) (protein)
chain: MTSFSQSELSTRTKEKLDLAANEIHIWVTKPEELLGNDELLATYSTLLTSTETAKQQRYKFAKDRHDALITRAFIRDLLSYYADVAPQDWQFEKGNKDKPEVINCPLPLRFNISHTKNLIICAVTLEDDIGCDVENTGRNNNVLAIAERYFSSKEIDELFALPEAQQRNRFFDYWTLKESYIKAWGLGLAIPLADFSFKINDTEHNHNGLFTIKQDINLSFAEHRVDEPQIWRSWLVYPTAAIDEKQEHRIAVSLRATSDNQKTDYQLRFFNTLPLLGYQEI

Biological target: Moritella marina polyketide synthase (PKS), four polypeptides Orf5, Orf6, Orf7 and Orf8

DHA Produced (gas chromatography of fatty acid methyl esters from E. coli co-expressing the Ppt and the PKS), Yes:
B1
B2
B3
B4
